This passage reports peptide exchange yield results from US20220111022A1 (IMMATICS BIOTECHNOLOGIES, published 2022).

The assay addresses T1, HLA-A*02:01 (human).
T1 construct: MHC monomers first loaded with a UV-sensitive peptide (not identified) that is cleaved and exchanged for the test peptide; captured on streptavidin-coated plates and detected with anti-β2m; also called peptide-receptive MHC molecules; MHC class I
As to the kind of experiment: UV-ligand exchange, anti-b2m ELISA; peptide exchange yield grade. From the text:
Candidate peptides for T cell based therapies according to the present invention were further tested for their MHC binding capacity (affinity). The individual peptide-MHC complexes were produced by UV-ligand exchange, where a UV-sensitive peptide is cleaved upon UV-irradiation and exchanged with the peptide of interest as analyzed. Only peptide candidates that can effectively bind and stabilize the peptide-receptive MHC molecules prevent dissociation of the MHC complexes. To determine the yield of the exchange reaction, an ELISA was performed based on the detection of the light chain (β2m) of stabilized MHC complexes. The assay was performed as generally described in Rodenko et al. (Rodenko et al., 2006).
96 well MAXISorp plates (NUNC) were coated over night with 2 μg/ml streptavidin in PBS at room temperature, washed 4× and blocked for 1 h at 37° C. in 2% BSA containing blocking buffer. Refolded HLA-A*02:01/MLA-001 monomers served as standards, covering the range of 15-500 ng/ml. Peptide-MHC monomers of the UV-exchange reaction were diluted 100-fold in blocking buffer. Samples were incubated for 1 h at 37° C., washed four times, incubated with 2 μg/ml HRP conjugated anti-β2m for 1h at 37° C., washed again and detected with TMB solution that is stopped with […]. Absorption was measured at 450 nm. Candidate peptides that show a high exchange yield (preferably higher than 50%, most preferred higher than 75%) are generally preferred for a generation and production of antibodies or fragments thereof, and/or T cell receptors or fragments thereof, as they show sufficient avidity to the MHC molecules and prevent dissociation of the MHC complexes.

B1: VIDSTLVKV (peptide)
peptide: VIDSTLVKV
Molecule B1 gave a peptide exchange yield of 50 to 75%.

B2: WLIDKSMEL (peptide)
peptide: WLIDKSMEL
In turn, B2 displayed a peptide exchange yield of no less than 75%.

B3: SQDASLLKV (peptide)
peptide: SQDASLLKV
The molecule B3 displayed a peptide exchange yield of 50 to 75%.

B4: QLMEKVQDV (peptide)
peptide: QLMEKVQDV
B4: the peptide exchange yield was in the range of 50 to 75%.

B5: HMIDLTIHL (peptide)
peptide: HMIDLTIHL
On to B5, for which the peptide exchange yield lay in the range of 50 to 75%.

B6: ILDEAKDISF (peptide)
peptide: ILDEAKDISF
B6: the peptide exchange yield was 50 to 75%.

B7: YIYDGKDMSSL (peptide)
peptide: YIYDGKDMSSL
Turning to B7, the peptide exchange yield lay within 50 to 75%.

B8: FLNLFDHTL (peptide)
peptide: FLNLFDHTL
As for B8, the peptide exchange yield was no less than 75%.

B9: YLFEDISQL (peptide)
peptide: YLFEDISQL
Molecule B9 registered a peptide exchange yield of no less than 75%.

B10: KLLDLTVRI (peptide)
peptide: KLLDLTVRI
With B10, the peptide exchange yield was no less than 75%.

B11: RLLEGDFSL (peptide)
peptide: RLLEGDFSL
B11 yielded a peptide exchange yield of no less than 75%.

B12: FLLDGTDMFHM (peptide)
peptide: FLLDGTDMFHM
The molecule B12 yielded a peptide exchange yield of 50 to 75%.

B13: ILFDDSVFTL (peptide)
peptide: ILFDDSVFTL
In turn, B13 displayed a peptide exchange yield of no less than 75%.

B14: VLDDTLVIF (peptide)
peptide: VLDDTLVIF
For B14, the peptide exchange yield is 50 to 75%.

B15: RLLDTTDVYLL (peptide)
peptide: RLLDTTDVYLL
With B15, the peptide exchange yield is no less than 75%.

B16: KLLNDLTSI (peptide)
peptide: KLLNDLTSI
Turning to B16, the peptide exchange yield was no less than 75%.

B17: IQDTSHLAV (peptide)
peptide: IQDTSHLAV
In turn, B17 came in with a peptide exchange yield of 50 to 75%.

B18: FVDEHTIDI (peptide)
peptide: FVDEHTIDI
Regarding B18, the peptide exchange yield was in the range of 50 to 75%.

B19: SLRDGTEVV (peptide)
peptide: SLRDGTEVV
B19 yielded a peptide exchange yield of 50 to 75%.

B20: KTWDQSIAL (peptide)
peptide: KTWDQSIAL
The molecule B20 registered a peptide exchange yield of no less than 75%.

B21: TLIDATWLV (peptide)
peptide: TLIDATWLV
B21 returned a peptide exchange yield of no less than 75%.

B22: YMDGTMSQV (peptide)
peptide: YMDGTMSQV
B22: the peptide exchange yield is 50 to 75%.

B23: TLDATVVEL (peptide)
peptide: TLDATVVEL
B23 yielded a peptide exchange yield of no less than 75%.

B24: SLSDVSQAV (peptide)
peptide: SLSDVSQAV
B24: the peptide exchange yield fell in the range of 50 to 75%.

B25: SLFAYPLPDV (peptide)
peptide: SLFAYPLPDV
For B25, the peptide exchange yield is no less than 75%.

B26: KLEERVYDV (peptide)
peptide: KLEERVYDV
B26 returned a peptide exchange yield of no less than 75%.

B27: SQTDLSPAL (peptide)
peptide: SQTDLSPAL
For B27, the peptide exchange yield is no less than 75%.

B28: ILYDGSNIQL (peptide)
peptide: ILYDGSNIQL
Consider B28, for which the peptide exchange yield was no less than 75%.

B29: ILFDLTHRV (peptide)
peptide: ILFDLTHRV
Turning to B29, the peptide exchange yield is no less than 75%.

B30: FMNDRSFIL (peptide)
peptide: FMNDRSFIL
Regarding B30, the peptide exchange yield is no less than 75%.

B31: ILDSTTIEI (peptide)
peptide: ILDSTTIEI
For the molecule B31, the peptide exchange yield was no less than 75%.

B32: FLDTSTADV (peptide)
peptide: FLDTSTADV
Regarding B32, the peptide exchange yield is no less than 75%.

B33: ALDDYTITF (peptide)
peptide: ALDDYTITF
As for B33, the peptide exchange yield is no less than 75%.

B34: AIYHDITGISV (peptide)
peptide: AIYHDITGISV
The molecule B34 gave a peptide exchange yield of 50 to 75%.

B35: AIDDTAARL (peptide)
peptide: AIDDTAARL
B35 had a peptide exchange yield of 50 to 75%.

B36: SLYDFTGEQMAA (peptide)
peptide: SLYDFTGEQMAA
B36 came in with a peptide exchange yield of 50 to 75%.

B37: QLLGRDISL (peptide)
peptide: QLLGRDISL
For B37, the peptide exchange yield was no less than 75%.

B38: HLCNHDVSL (peptide)
peptide: HLCNHDVSL
B38 came in with a peptide exchange yield of no less than 75%.

B39: NVDSTILNL (peptide)
peptide: NVDSTILNL
B39 came in with a peptide exchange yield of no less than 75%.

B40: ILTDITGHDV (peptide)
peptide: ILTDITGHDV
B40 gave a peptide exchange yield of 50 to 75%.

B41: SLLDGSESAKL (peptide)
peptide: SLLDGSESAKL
Turning to B41, the peptide exchange yield is no less than 75%.

B42: TLDITIVNL (peptide)
peptide: TLDITIVNL
Consider B42, for which the peptide exchange yield was no less than 75%.

B43: ALPQFFNDV (peptide)
peptide: ALPQFFNDV
In turn, B43 came in with a peptide exchange yield of no less than 75%.

B44: FLGPIVDL (peptide)
peptide: FLGPIVDL
On to B44, for which the peptide exchange yield was no less than 75%.

B45: GLVDGSSVTV (peptide)
peptide: GLVDGSSVTV
Turning to B45, the peptide exchange yield was no less than 75%.

B46: NLYNDLTNV (peptide)
peptide: NLYNDLTNV
In the case of B46, the peptide exchange yield was 50 to 75%.

B47: SLLFQDITL (peptide)
peptide: SLLFQDITL
B47 came in with a peptide exchange yield of no less than 75%.

B48: AVFDQTVTVI (peptide)
peptide: AVFDQTVTVI
B48 displayed a peptide exchange yield of 50 to 75%.

B49: FLGEDISNFL (peptide)
peptide: FLGEDISNFL
Consider B49, for which the peptide exchange yield is no less than 75%.

B50: LLDSTAHLL (peptide)
peptide: LLDSTAHLL
Take B50: the peptide exchange yield was no less than 75%.

B51: VLMDGTLKQV (peptide)
peptide: VLMDGTLKQV
B51 came in with a peptide exchange yield of no less than 75%.

B52: FLDQTDETL (peptide)
peptide: FLDQTDETL
In the case of B52, the peptide exchange yield was in the range of 50 to 75%.

B53: ALYDSTRELL (peptide)
peptide: ALYDSTRELL
Molecule B53 came in with a peptide exchange yield of no less than 75%.

B54: SLDISLPNL (peptide)
peptide: SLDISLPNL
In turn, B54 displayed a peptide exchange yield of no less than 75%.

B55: ALADLTGTVVNL (peptide)
peptide: ALADLTGTVVNL
For the molecule B55, the peptide exchange yield was no less than 75%.

B56: AVDGTDARL (peptide)
peptide: AVDGTDARL
B56 came in with a peptide exchange yield of 50 to 75%.

B57: LLDATHQI (peptide)
peptide: LLDATHQI
The molecule B57 displayed a peptide exchange yield of no less than 75%.

B58: KLISDMGKDVSA (peptide)
peptide: KLISDMGKDVSA
B58 returned a peptide exchange yield of 50 to 75%.

B59: YVWDRTELL (peptide)
peptide: YVWDRTELL
In turn, B59 had a peptide exchange yield of no less than 75%.

B60: SLFDDSFSL (peptide)
peptide: SLFDDSFSL
For B60, the peptide exchange yield was no less than 75%.
